Experiment: yeast display, Sf9 membrane polyspecificity reagent, FACS + sequencing; frameworks hold sequencing errors
Procedure, shortened: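 Nanobodies came from a synthetic yeast display library in Saccharomyces cerevisiae BJ5465, induced with galactose for 36–48 hours and stained for 1 hour at 4 °C with 10% biotinylated, detergent-solubilized Sf9 membrane reagent. Cells were enriched on streptavidin microbeads and then FACS-sorted, with low and high (top ~1%) gates set on anti-HA fluorescence for expression and streptavidin fluorescence for reagent binding. Each polyreactivity label reflects the gate a clone came from. Genes were amplified by colony PCR, sequenced by MiSeq 2 × 250 and filtered by CDR length.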

| Sequence | polyreactivity (PSR sort gate) |
| --- | --- |
| QVQLVESGGGLVQAGGSLRLSCAASGFTFSYYAMGWYRQAPGKERELVAAISSGGSTNYADSVKGRFTISRDNAKNTVYLQMNSLKPEVTAVYYCNVRLYYPTYASMEYWGQGTQVTVSS | low polyreactivity |
| QVQLVESGGGLVQAGGSLRLSCAASGRTFHYNVMGWYRQAPGKERELVAAITNTGGSTYYADSVKGRFTISRDNAKNTVYLQIYSLKPEDTAVYYCAAVIWGRRYGAYPYEYWGQGTQVTVSS | low polyreactivity |
| QVQLVESGGGLVQAGGSLRLSSAASGRTFVSYAMGWYRQAPGKERELVAVITYSGGSTNYADSVKGRFTISRDNAKNTVYLQMNSLKPEDTAVYYCAATQSIPYSTLYSYDYWGQGTQVTVSS | low polyreactivity |
| QVQLVESGGGLVQAGGSLRLSCAASGYIFGNYAMGWYRQAPGKERELVAAISKSGVTTYYADSVKGRFTISRDNAKNTVYLQMNSLKPEDTAVYYCNARSWRPINARYNEYDYWGQGTQVTVSS | low polyreactivity |
| QVQLVESGGGLVQAGGSHRLSCAASGRIFNWYAMGWYRHAPGKDRALVARISSGDITSYADSVKGRFSISRDNAKNTVYLQMNILKPEDTAVYYCAARQWFLYDYWGQGTQVTVSS | low polyreactivity |
| QVQLVESGGGLVQAGGSLRLSCAASGRIFYGYAMGWYRQAPGKERELVAAITRSSSTYYADSVKGRFTISRDNAKNTVYLQMNSLKPEDTAVYYCNARVWAKYDYWGQGTQVTVSS | high polyreactivity |
| QVQRVESGGGLVQAGGSLRLSCAASGRTFGYNAMGWYRQAPGKERELVAAISSSGGSTYYADSVKGRFTISRDNAKNTVYLQMNSLKPEDTAVYYCATQGYSWAHGSDYWGQGTQVTVSS | low polyreactivity |
| QVQLVESGGGLVQAGGSLRLSCAASGRTFYLYTMGWYRQAPGKVSELVATISDGGGGTYYADSVKGRFTISRDNAKNTVYLQMNRLKPEDTAVYYCSADPIDVRDVPIPHVDFDYWGQGTQVTVSS | low polyreactivity |
| QVQLVESGGGLVQAGGSLRLSCAASGNIFFIYAMGWYRQAPGKERELVAAITSTGSTYYADSVKGRFTISRDNAKNTVYLQMNSLKPEDTAVYYCAALLQRRFAYDYWGQGTQVTVSS | low polyreactivity |
| QVQLVESGGGLVQAGGSLRLSCAASGSIFYGNAMGWYRQAPGKERELVADITWSGGSTYYADSVKGRFTISRDNAKNTVYLQMNSLKPEDTAVYYCAAKVKHWYYPYYYWGQGTQVTVSS | low polyreactivity |
| QVQLVESGGGLVQAGGSLRVSCAASGSIFHFYTMGWYRQAPGKERELVAAISSTGSTNYADSVKGRFTISRDNAKNTVYLQMNSLKPEDTAVYYCAAVGTYLAGYQFDYWGQGTQVTVSS | low polyreactivity |
| QVQLVESGGGLVQAGGSLRLSCAASGSIFGFNAMGWYRQAPGKERELVAAITNSGVRTYYADSVKGRFTISRDNAKNTVYLQMNSLKPEDTAVYYCAAEPDTYWYTYDYWGQGTQVTVSS | low polyreactivity |
| QVQLVESGLGLVQAGGSLRLSCASSGSICSTYAMGLYRQAPGKERELVAAITTSGGRTYYADSVKGRFTISRDNAKNSVYLQMNSLKPEDTAVYFCNAVRGGRYGLDYWGQGTQVTVSS | high polyreactivity |
| QVQLVESGGGEVQAGGSLRLSCAASGSIFRFYTMGWSRQAPGTERELVATLARGGSTNYADSVKGRFTISRDTAKNTVYLQMNSLKPEDTAVYYCNVAALYSTYCGYGYDYSGQGTQVTVSS | high polyreactivity |
| QVQLVESGGGLVQAGGSLRLSCAASGRIFGVNAMGWYRQAPGKERELVAAINYSGGRTSYADSVKGRFTISRDHAKNTVYLQMNSLKPEDTAVYYCAKYGLRGGYLYYYWGQGTQVTVSS | high polyreactivity |
| QVQLVESVGGLLQAGGSLRLSCAASGSTFYNYAMGWYRQAPGKERELVAAIRNGGGTNYADSVKGRFTISRDNAKNTVYLQMNSLKPEDTAVYYCSTRLDWRRTYGYWGQGTQVTVSS | low polyreactivity |

| Sequence | polyreactivity (PSR sort gate) |
| --- | --- |
| QVQLVESGGGLVQAGGSLRLSCAASGSIFVNNAMGWYRQAPGKERELVAAISSRSSRTFYADSVKGRFTISRDNAKNTVYLQMNSLKPEDTAVYYCAKPGYLRPSRYDYWGQGTQVTVSS | high polyreactivity |
| QVQHVESGGGLVQAGGSLRLSCAASGRIFDLNAMGWYRQATGKERELVAAISYSGGRTFSADSVKRRFTISRDNAKNTVYLQMNSLKPEDTAVYYCAAVAYLNWTPHYYWGQGTQVTVSS | low polyreactivity |
| QVQLQEGGGGLVQAGGSLRLSCAASGYISYGDVMGWYRQAPGEERELVASIGLDATTNYADSVKGRFTISRDNAKITVYLQMNSLKPEATAVYYCAADVGSGVMCGYWGQGTQMTVSS | high polyreactivity |
| QVQLVESGGGLVQAGGSLRLSCAASGSTFYIYAMGWYIQAPGKERELVAAISTTDGTTYYADSVKGRFTISRDNAKNTVYLQMNSLKPEDTAVYYCAAEWFGSVQPAYDYWGQGTQVTVSS | high polyreactivity |
| QVQLVESGGGLVQAGGSLRLSCAASGSIFPGNGMGWYRQAPGKERELVAAITWSVATTYYADSVKGRFTISRDNAKNTVYLQMNSLKPEDTAVYYCAADDAYPYDWGQGTQVTVSS | low polyreactivity |
| QVQLVESGGGLVQAGGSLRLSCAASGITFWGYAMGWYRQAPGKERELVAAISKTGGSTYYADSVKGRFTISRDNAKNTVYLQMNSLKPEDTAVYYCNTVTANGDFGYWGQGTQVTVSS | low polyreactivity |
| QVQLVESGGGLVQAGGSLRLSCAASGNTLIQYAMGWYRQAPGKERELVAGISGSDDSTYYADSVKGRFTISRDNAKNTVYLQMNSLKPEDTAVYYCAAQVDRWKGREHDYWGQGTQVTVSS | low polyreactivity |
| QVQLVESGGGLVQAGCSLRLSCAASGRTFAYYAMGWYRQAPGKERELVAAISSGGGSTYYADSVKGRFTISRDNAKNTVYLQMNSLKPEDTAVYYCAKERSYSRSGGTYYYWGQGTQVTVSS | high polyreactivity |
| QVQLQESGGGLEQAGGDLRLSCAASGNIFRDYIMGWYRQAPGKEREFVAGIDRGANTNYADSVKGRFTISRDNAKNTVYLQMNSLKPEDTAVYYCAVHTAIVADFIYWGQGTQVTVSS | low polyreactivity |
| QVQLVESGGGLVQAGGSLRLSCAASGRTYVYNAMGWYRQAPGKERELVAAISSSGGSTRYADSVKGRFTISRDNAKNTVYLQMNSVKPEDTAVYYCNRLRYSNRYDSWGQGTQVTVSS | high polyreactivity |
| QVQLVESGGGLVQAGGSLRLSCAASGSTLDRNTMGWYRAAPGKESELVAAITWSGGRTYYADSVKGRFTISRDNANNSVYLQLNSLKPEDTAVYYCNKDYWKRPVDEYDYWGQGTQVTVSS | high polyreactivity |
| QVQLVESGGGLVQAGGSLRLSCAASGRIFPTNAMGWYRQAPGKERELVASITRSGSTYYADSVKGRFTISRDNAKNTVYLQMNSLKPEDTAVYYCAADRSAVQFSAFLEYDYWGQGTQVTVSS | low polyreactivity |
| QVQLVESGGGLVQAGGSLRLSCAASGSTFAQNAMGWYRQAPGKERELVAAISRRGTITNYADSVKGRFTISRDNAKNTVYLQMNSLKPEDTAVYYCAKEGTWTGGSDNYWGQGTQVTVSS | high polyreactivity |
| QVQLVESGGGLVQAGGSLRLSCAASGIIFVSYDMGWYRQAPGKERELVAAINRGGRTYYADSVKGRFTISRDNAKNTVYLQMNSLKPEDTAVYYCAAQFHFRPFSWTYDYWGQGTQVTVSS | high polyreactivity |
| QVQLEESRGGLVQAGGSLRLSCAASGLNFRSNAMGWYRQAPGKERELVAAISSSGGSTYYADSVKGRFTISRENAKNTVYLQMNSLKPEDTAVYYCAAEDPADQYDYWGQGTQVTVSS | high polyreactivity |
| QVQLVESGGGLVQAGGSLRLSCAASGRIFRYNAMGWYRQAPGKERELVAAITSGTGTNYADSVKGRFTISRDNAKNTVYLQMNSLKPEDTAVYYCNKDRKSYRYDYWGQGTQVTVSS | low polyreactivity |

Reference: the nanobody polyreactivity screen of Harvey et al. (2022)
